Test results reported in PMC8616905.
Read-outs that look alike come from different tables or passages of the source.

Assays:
[1] = molecular target: Ago2 (guide-loaded) (human) (UniProt Q9UKV8); assay: EMSA
[2] = molecular target: Ago2 (guide-loaded) (human) (UniProt Q9UKV8); assay: koff measurement

Ago2 (guide-loaded) (human), sequence (Q9UKV8 whole entry): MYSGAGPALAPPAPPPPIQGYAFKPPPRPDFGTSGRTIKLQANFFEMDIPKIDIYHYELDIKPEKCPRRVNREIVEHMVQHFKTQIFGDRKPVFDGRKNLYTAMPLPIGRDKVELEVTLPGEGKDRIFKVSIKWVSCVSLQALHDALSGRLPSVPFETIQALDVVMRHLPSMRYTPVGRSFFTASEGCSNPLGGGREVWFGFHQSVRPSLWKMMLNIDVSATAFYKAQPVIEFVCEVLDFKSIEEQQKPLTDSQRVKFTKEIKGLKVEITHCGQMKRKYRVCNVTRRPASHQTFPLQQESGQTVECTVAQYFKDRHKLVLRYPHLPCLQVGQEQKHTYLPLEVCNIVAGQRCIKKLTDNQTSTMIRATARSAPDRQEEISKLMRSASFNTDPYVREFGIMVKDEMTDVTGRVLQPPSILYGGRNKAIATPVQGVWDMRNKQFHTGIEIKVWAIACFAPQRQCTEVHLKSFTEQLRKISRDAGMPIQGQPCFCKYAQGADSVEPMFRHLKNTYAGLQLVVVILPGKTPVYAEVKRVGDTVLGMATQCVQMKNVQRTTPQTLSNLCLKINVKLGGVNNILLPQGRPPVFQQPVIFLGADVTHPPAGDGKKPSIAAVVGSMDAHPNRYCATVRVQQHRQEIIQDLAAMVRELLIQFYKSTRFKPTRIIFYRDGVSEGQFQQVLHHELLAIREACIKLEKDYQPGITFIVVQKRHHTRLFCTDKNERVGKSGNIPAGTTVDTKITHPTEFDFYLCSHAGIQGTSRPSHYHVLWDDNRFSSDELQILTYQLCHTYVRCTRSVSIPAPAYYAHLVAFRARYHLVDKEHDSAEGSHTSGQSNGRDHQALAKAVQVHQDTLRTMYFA

HCV 5' UTR deltaSL1 + miR-122 guide
Kd [1]: 0.058 nM

Site-1 WT + miR-122 guide
binding signal (relative koff (reference)) [2]: 1

Site-1 deltaSL1 (A4 bridge) + miR-122 guide
koff fold change (fold slower koff than Site-1 WT) [2]: 6

Site-1 t9 abasic + miR-122 guide
koff fold change (fold slower koff than Site-1 WT) ([2]; abasic nucleotide at t9 (G21)): 3
